In US20220298260A1 (MYTHIC THERAPEUTICS, published 2022):
Residue numbers refer to the chain shown, from its start.

B1: MYT0613 (antibody, V domains shown)
VH: QVQLVQSGAEVVKPGASVKISCKASGYTFTGYFMNWVKQSPGQSLEWIGRIHHYDGDTFYNQKFQGKATLTVDKSSNTAHMELLSLTSEDFAVYYCTRYDGSRAMDYWGQGTTVTVSS
VL: DIVLTQSPLSLAVSLGQPAIISCKASQSVSFAGTSLMHWYHQKPGQQPRLLIYRASNLEAGVPDRFSGSGSKTDFTLTISPVEAEDAATYYCQQSREYPYTFGGGTKLEIK
notes: IgG
B2: MYT4532 (antibody, V domains shown)
VH: EVQLVESGGGVVQPGRSLRLSCSASGFTFSGYGLSWVRQAPGKGLEWVAMISSGGSYTYYADSVKGRFAISRDNAKNTLFLQMDSLRPEDTGVYFCARHGDDPAWFAYWGQGTPVTVSS
VL: DIQLTQSPSSLSASVGDRVTITCSVSSSISSNNLHWYQQKPGKAPKPWIYGTSHLASGVPSRFSGSGSGTDYTFTISSLQPEDIATYYCQQWSSYPYMYTFGQGTKVEIK
notes: IgG
B3: MYT4533 (antibody, V domains shown)
VH: B2 VH
VL: B2 VL with H54N, L55H
notes: IgG
B4: MYT4534 (antibody, V domains shown)
VH: B2 VH
VL: B2 VL with H54N, A56H
notes: IgG
B5: MYT4535 (antibody, V domains shown)
VH: B2 VH
VL: B2 VL with H54N, S57H
notes: IgG
B6: MYT4536 (antibody, V domains shown)
VH: B2 VH
VL: B2 VL with H54N, Q90H
notes: IgG
B7: MYT4537 (antibody, V domains shown)
VH: B2 VH
VL: B2 VL with H54N, Q91H
notes: IgG
B8: MYT4538 (antibody, V domains shown)
VH: B2 VH
VL: B2 VL with H54N, W92H
notes: IgG
B9: MYT4539 (antibody, V domains shown)
VH: B2 VH
VL: B2 VL with H54N, S93H
notes: IgG
B10: MYT4540 (antibody, V domains shown)
VH: B2 VH
VL: B2 VL with H54N, S94H
notes: IgG
B11: MYT4541 (antibody, V domains shown)
VH: B2 VH
VL: B2 VL with H54N, Y95H
notes: IgG
B12: MYT4542 (antibody, V domains shown)
VH: B2 VH
VL: B2 VL with H54N, P96H
notes: IgG
B13: MYT4543 (antibody, V domains shown)
VH: B2 VH
VL: B2 VL with H54N, Y97H
notes: IgG
B14: MYT4544 (antibody, V domains shown)
VH: B2 VH
VL: B2 VL with H54N, M98H
notes: IgG
B15: MYT4545 (antibody, V domains shown)
VH: B2 VH
VL: B2 VL with H54N, Y99H
notes: IgG
B16: MYT4546 (antibody, V domains shown)
VH: B2 VH
VL: B2 VL with H54N, T100H
notes: IgG

The binders below were run against T1, FOLR1 (R&D Systems, Cat #5646-FR) (human, UniProt P15328 25-233) (assay: BLI, IgG on anti-human Fc sensor).
T1 construct: Bought soluble protein; also called Folate Receptor 1
T1 sequence (P15328 25-233 limits assumed): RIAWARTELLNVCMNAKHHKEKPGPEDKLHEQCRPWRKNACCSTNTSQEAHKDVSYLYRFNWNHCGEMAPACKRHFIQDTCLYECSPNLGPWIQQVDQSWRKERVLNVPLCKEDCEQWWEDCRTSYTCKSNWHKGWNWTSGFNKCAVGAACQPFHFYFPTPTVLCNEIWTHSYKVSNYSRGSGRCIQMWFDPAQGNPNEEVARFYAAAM
B1: no binding (tested: 50 nM).

These binders were tested against T1, FOLR1 (R&D Systems, Cat #5646-FR) (assay: BLI, IgG on anti-human Fc sensor, 50 nM FOLR1).
B2: binds. B3: binds. B4: binds. B5: binds. B6: binds. B7: binds. B8: binds. B9: binds. B10: binds. B11: binds. B12: binds. B13: binds. B14: binds. B15: binds. B16: binds.
